# Source: patent US5602102A, “Dipeptidyl peptidase-I inhibitors and uses thereof” (Board of Regents, The Univ. of TX System, priority 1992, dated 1997)
# Where a SMILES comes first, the peptide text is derived from it. The star is where a group is joined. Cbz = O=C(OCc1ccccc1)*; CHN2 = [N-]=[N+]=C*
# Legend:
# NK cells (Yac-1 targets) = test: NK function of spleen cells, specific lysis of Yac-1; format: in vivo, murine; settings: spleen cells of saline injected mice treated with 250 μM Leu-Leu-Ome
# Source text: (§1) The Yac-1 represents a standard target for natural killer (NK) cells.
# CTL precursors = test: MLC activated anti-H-2 specific CTL from spleen cells; format: in vivo, murine; settings: spleen cells of saline injected mice treated with 250 μM Leu-Leu-Ome
# Source text: as §1
# Unlike control cells, spleen cells in which DPPI activity was inhibited were resistant to any discernible toxic effects of Leu--Leu--OMe on NK function of the capacity to generate anti-H-2^d specific CTL.
# [1] = tested on: BLT esterase (granzyme A); test: BLT esterase activity in IL2 activated human PBL; format: cell-based; settings: IL2 activated Leu--Leu--OMe treated PBL
# Source text: The cells were then harvested, disrupted in a dounce homogenizer, the nuclei pelleted and residual intact cells removed by centrifugation and the granule fraction localized on discontinuous Percoll gradients. […] Thus, Leu--Leu--OMe sensitive, DPPI enriched cells are the source of BLT esterase in such IL2 activated cultures.
# [2] = biological target: T1, BLT esterase (granzyme A) (Mus musculus, UniProt P11032); test: BLT esterase activity in granule fractions of control CD8(+) CTL, in vitro incubation with inhibitor; format: biochemical, murine; settings: in vitro incubation with 1 mM
# T1 construct: endogenous in cells; host or cells: alloreactive murine CD8(+) T cells, whole cells or Percoll granule fractions
# T1 sequence (P11032 29-260): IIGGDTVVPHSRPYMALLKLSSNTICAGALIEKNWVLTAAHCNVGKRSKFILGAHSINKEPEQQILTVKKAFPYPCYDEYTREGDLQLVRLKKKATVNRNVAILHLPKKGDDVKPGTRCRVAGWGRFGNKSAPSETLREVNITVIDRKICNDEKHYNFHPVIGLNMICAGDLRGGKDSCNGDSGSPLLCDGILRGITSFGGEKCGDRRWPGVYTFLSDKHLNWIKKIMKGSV
# Method: 193, Academic Press, New York).
# Cells were incubated for 5 minutes on ice in hypotonic homogenization buffer (0.1× PBS salts, 1 mM MgCl2). The cells were disrupted with a glass pestle homogenizer and isotonic conditions restored by the addition of 10× PBS salts. The homogenates were cleared of cell debris and intact cells by centrifugation at 600 xg for 2 minutes. The soluble extracts were layered on discontinuous Percoll gradients (6 ml 39%, 6 ml 90% Percoll) and centrifuged .for one hour at 17,000 xg. The gradients were fractionated by removing 1 ml aliquots from the top.
# Alloreactive CD8(+) T-cells were homogenized and fractionated on discontinuous Percoll gradients.
# [3] = biological target: human dipeptidyl peptidase-I (Homo sapiens, UniProt P53634); test: Effect of protease inhibitors on DPPI activity (purified enzyme); format: biochemical; set-up: Human DPPI is now established to constitute a 200,000 Da glycoprotein with 24,000 Da subunits; from tissue; host or cells: human cadaveric spleen; settings: screening conditions pH 5.5
# Method: Note. Purified human dipeptidyl peptidaseI (0.4 μg) was preincubated
# with each of the inhibitors at the stated concentration for 15 min at
# 37° C.. Each sample was diluted 3fold with assay buffer containing
# substrate and incubated for an additional 20 min.
# DPPI = DPPI (Homo sapiens, UniProt P53634); settings: cited from earlier work
# [4] = biological target: human leukocyte elastase proenzyme (human) (UniProt P08246)
# [5] = biological target: human granzyme A proenzyme (human) (UniProt P12544)
# [6] = biological target: propeptide-bearing form of human cathepsin G (human) (UniProt P08311)
compound,measurement,setting,value
COC(=O)[C@H](CC(C)C)NC(=O)[C@@H](N)CC(C)C [Leu--Leu--OMe],NK Function % Specific Lysis Yac-1,NK cells (Yac-1 targets); 20:1,< 1 % Specific Lysis
same,NK Function % Specific Lysis Yac-1,NK cells (Yac-1 targets); 80:1,< 1 % Specific Lysis
same,MLC Activated Anti-H-2° Spec. CTL,CTL precursors; 20:1,1
same,MLC Activated Anti-H-2° Spec. CTL,CTL precursors; 80:1,3
same,BLT esterase activity,[1],could not be detected
"O=S(=O)(F)Cc1ccccc1 [PMSF, phenylmethylsulfonylfluoride]",BLT esterase activity in granule fractions inhibited,[2],> 95%
same,effect on DPPI activity (in words),[3],no effect
[N-]=[N+]=CC(=O)C(Cc1ccccc1)NC(=O)CNC(=O)C(Cc1ccccc1)NC(=O)OCc1ccccc1 (stereo not drawn) [Z--Phe--Gly--Phe--CHN2] (Cbz-Phe-Gly-Phe-CHN2; configuration not given here),less reactive with DPPI than Gly--Phe--CHN2,DPPI,3 orders of magnitude
human dipeptidyl peptidase-I (from UniProt P53634) (enzyme),hydrolysis of synthetic peptide substrate by purified human DPPI (values at 100 µM and 500 µM substrate; value given is at 500 µM),Ala-Ala-Val-Ala-pNA,120 not printed
same,hydrolysis of synthetic peptide substrate by purified human DPPI (values at 100 µM and 500 µM substrate; value given is at 500 µM),Ala-Ala-pNA,1000 not printed
same,hydrolysis of synthetic peptide substrate by purified human DPPI (values at 100 µM and 500 µM substrate; value given is at 500 µM),Arg-Arg-βNA,0 not printed
same,hydrolysis of synthetic peptide substrate by purified human DPPI (values at 100 µM and 500 µM substrate; value given is at 500 µM),Asp-Ala-βNA,1000 not printed
same,hydrolysis of synthetic peptide substrate by purified human DPPI (values at 100 µM and 500 µM substrate; value given is at 500 µM),CBZ-Arg-Arg-βNA,0 not printed
same,hydrolysis of synthetic peptide substrate by purified human DPPI (values at 100 µM and 500 µM substrate; value given is at 500 µM),CBZ-Gly-Pro-Arg-AMC,0 not printed
same,hydrolysis of synthetic peptide substrate by purified human DPPI (values at 100 µM and 500 µM substrate; value given is at 500 µM),CBZ-Val-Leu-Arg-MNA,0 not printed
same,hydrolysis of synthetic peptide substrate by purified human DPPI (values at 100 µM and 500 µM substrate; value given is at 500 µM),Gly-Arg-MNA,4750 not printed
same,hydrolysis of synthetic peptide substrate by purified human DPPI (values at 100 µM and 500 µM substrate; value given is at 500 µM),Gly-Phe-AMC,6120 not printed
same,hydrolysis of synthetic peptide substrate by purified human DPPI (values at 100 µM and 500 µM substrate; value given is at 500 µM),Gly-Phe-MNA,5750 not printed
same,hydrolysis of synthetic peptide substrate by purified human DPPI (values at 100 µM and 500 µM substrate; value given is at 500 µM),Gly-Phe-pNA,380 not printed
same,hydrolysis of synthetic peptide substrate by purified human DPPI (values at 100 µM and 500 µM substrate; value given is at 500 µM),Gly-Phe-βNA,4380 not printed
same,hydrolysis of synthetic peptide substrate by purified human DPPI (values at 100 µM and 500 µM substrate; value given is at 500 µM),Gly-Pro-MNA,0 not printed
same,hydrolysis of synthetic peptide substrate by purified human DPPI (values at 100 µM and 500 µM substrate; value given is at 500 µM),Gly-Pro-βNA,0 not printed
same,hydrolysis of synthetic peptide substrate by purified human DPPI (values at 100 µM and 500 µM substrate; value given is at 500 µM),Pro-Phe-Arg-AMC,0 not printed
same,hydrolysis of synthetic peptide substrate by purified human DPPI (values at 100 µM and 500 µM substrate; value given is at 500 µM),Ser-Tyr-MNA,1750 not printed
same,hydrolysis of synthetic peptide substrate by purified human DPPI (values at 100 µM and 500 µM substrate; value given is at 500 µM),Ser-Tyr-βNA,2000 not printed
same,hydrolysis of synthetic peptide substrate by purified human DPPI (values at 100 µM and 500 µM substrate; value given is at 500 µM),Suc-Ala-Ala-Ala-pNA,0 not printed
same,hydrolysis of synthetic peptide substrate by purified human DPPI (values at 100 µM and 500 µM substrate; value given is at 500 µM),Suc-Ala-Ala-Pro-Phe-pNA,0 not printed
same,generation of elastase activity in U-937 cells with endogenous DPPI inhibited for 48 hours,[4],65 % decrease
same,generation of granzyme A (BLT esterase) activity in human LAK cells with endogenous DPPI inhibited,[5],< 90 % reduction
same,"processing of newly synthesized cathepsin G to the active form in U-937 cells with endogenous DPPI inhibited (3H-Ile pulse-chase, aprotinin-agarose, radiosequencing)",[6],< 10 % of control
